In PMC2810501:

Target: specific saturable binding sites for S100A8/A9 on cell membranes of blood MDSC (carboxylated N-glycan receptors)
Assay: radioligand binding

Kd: 37.4 nM
Substance: S100A8/A9 heterodimer, purified, Na125I-labeled (from UniProt P27005 1-89; P31725 1-113) (complex)
